The results in this text go back to article PMC2597217.

The target of data set [1] is T1, FoxO1 DBD 151-266 (human, UniProt Q12778 151-266). The data set can be described thus: EMSA.
Data set [2] deals with T1, FoxO1 DBD 151-266. The data set can be described thus: crystal structure.
The target in data set [3] is FoxO1 DBD 151-256 (human, UniProt Q12778 151-256). Put plainly: EMSA. A general note: A gel shift assay detects complexes by their altered migration in electrophoresis.
Chain of FoxO1 DBD 151-256 (Q12778 151-256): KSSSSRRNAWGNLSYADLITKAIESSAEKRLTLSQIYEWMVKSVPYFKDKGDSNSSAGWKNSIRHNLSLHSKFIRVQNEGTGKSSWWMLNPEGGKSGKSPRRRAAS

T1 sequence (Q12778 151-266): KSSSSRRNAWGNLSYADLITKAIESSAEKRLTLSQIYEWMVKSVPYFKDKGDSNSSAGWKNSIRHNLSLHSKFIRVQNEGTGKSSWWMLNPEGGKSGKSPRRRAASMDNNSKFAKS

B1: DBE1 (dsDNA)
DNA 1: TGGTTTGTTTACCTTG
DNA 2: CAAGGTAAACAAACCA
For the molecule B1, the binding signal in data set [1] was 2 fold affinity vs IRE.

B2: DBE2 (dsDNA)
DNA 1: TCTTGTTTACATTTTG
DNA 2: CAAAATGTAAACAAGA
In data set [1], B2 came in with a binding signal of 5 fold affinity vs DBE1.

B3: IRE (dsDNA)
DNA 1: TGGTTTGTTTTGCTTG
DNA 2: CAAGCAAAACAAACCA
For B3, the binding result in data set [2] and in data set [3] was “binds” each time.
